Experimental data published in article PMC6274923, “Pinpointed Stimulation of EphA2 Receptors via DNA-Templated Oligovalence” (International Journal of Molecular Sciences, 2018).
Blank lines part the entries; values can stand above or below the molecule they belong to.

Target: T1, EphA2 receptor (Homo sapiens, UniProt P29317)
T1 construct: PC-3 prostate cancer cells that overexpress the EphA2 receptor; endogenous in cells; host or cells: PC-3 cells (ATCC CRL-1435)
Experiment: EphA2 phosphorylation assay (sandwich ELISA, DuoSet IC Human Phospho-EphA2 kit) in PC-3 cells
Format: cell-based

[1] = serum-starved PC-3 cells, 30 min at 37 °C, duplicates, sandwich ELISA, approximate EC50 from least-square fit (Equation 1), mean ± standard deviation, concentration of whole entity (DNA construct or peptide)

T1 sequence (P29317 24-976): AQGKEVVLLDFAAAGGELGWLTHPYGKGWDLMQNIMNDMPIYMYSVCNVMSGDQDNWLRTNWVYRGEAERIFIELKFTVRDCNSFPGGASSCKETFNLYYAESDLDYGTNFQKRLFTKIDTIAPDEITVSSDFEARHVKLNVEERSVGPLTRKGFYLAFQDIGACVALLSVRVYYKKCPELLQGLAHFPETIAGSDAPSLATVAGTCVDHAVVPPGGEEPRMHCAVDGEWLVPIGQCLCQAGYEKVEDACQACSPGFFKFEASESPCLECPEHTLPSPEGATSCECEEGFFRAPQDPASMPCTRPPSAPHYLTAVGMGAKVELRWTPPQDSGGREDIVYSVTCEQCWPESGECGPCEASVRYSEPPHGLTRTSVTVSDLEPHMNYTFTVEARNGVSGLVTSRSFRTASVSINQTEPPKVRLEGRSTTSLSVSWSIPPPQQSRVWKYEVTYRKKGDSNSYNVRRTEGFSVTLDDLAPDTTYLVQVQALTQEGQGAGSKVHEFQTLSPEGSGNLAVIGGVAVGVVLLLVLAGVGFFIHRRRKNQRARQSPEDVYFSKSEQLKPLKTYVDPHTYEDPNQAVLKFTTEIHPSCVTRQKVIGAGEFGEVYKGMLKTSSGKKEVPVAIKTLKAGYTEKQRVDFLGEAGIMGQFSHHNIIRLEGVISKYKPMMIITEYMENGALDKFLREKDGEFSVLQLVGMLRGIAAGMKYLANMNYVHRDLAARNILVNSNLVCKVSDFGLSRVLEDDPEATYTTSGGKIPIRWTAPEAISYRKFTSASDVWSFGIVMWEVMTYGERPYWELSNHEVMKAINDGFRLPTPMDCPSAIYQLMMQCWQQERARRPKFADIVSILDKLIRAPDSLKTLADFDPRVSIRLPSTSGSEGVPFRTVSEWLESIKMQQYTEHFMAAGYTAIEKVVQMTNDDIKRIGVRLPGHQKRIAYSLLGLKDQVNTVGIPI
Experimental: Serum-starved PC-3 cells were treated with different SWL-DNA trimer constructs (9 µM), monomeric SWL peptide (150 µM) and the natural ligand ephrin-A1 (1.5 µg/mL) in duplicates for 30 min at 37 °C. Cells were washed with 1× PBS twice and further treated according to the manufacturer’s instructions.
Serum-starved PC-3 cells were treated with different concentrations of constructs in duplicates for 30 min at 37 °C. Cells were washed with 1× PBS twice and further treated according to the manufacturer’s instructions. […] Standard deviation is presented as error bars. The x-axis indicates concentrations of the constructs in terms of DNA for 0xSWL-DNA trimer—3xSWL-DNA trimer and the concentration of the peptide for SWL.
Levels of EphA2 phosphorylation were determined using the DuoSet IC Human Phospho-EphA2 kit (R&D systems, Minneapolis, MN, USA) which is based on a sandwich ELISA. Briefly, 2 × 10^5 PC-3 cells were seeded three days before the assay for the comparison of ligands. For the concentration series used to determine EC50 values, 1 × 10^6 PC-3 cells were seeded into 12-well culture plates one day before the assay. On the day of the experiment, cells were serum-starved for 4 h and treated with either 1xSWL-DNA trimer, 2xSWL-DNA trimer, 3xSWL-DNA trimer, natural ligand ephrin-A1, SWL peptide, DNA trimer only or 1× PBS/10 mM MgCl2 as negative control for 30 min at 37 °C. Cells were lysed using 250 µL/well lysis buffer (according to kit) and assayed as indicated by manufacturer’s instructions. Manifold washing was conducted after every step and the whole procedure was executed at room temperature. In brief, 96-well ELISA plates carrying specific human EphA2 capture antibodies were incubated with cell lysates of afore treated PC-3 cells. This was followed by the addition of anti-phospho-tyrosine-HRP antibodies which ultimately fulfil a colorimetric reaction by conversion of 3,3′,5,5′-Tetramethylbenzidine substrate solution for 25 min (ligands in Figure 4a) or 8 min (ephrin-A1 in Figure A7). This reaction was stopped by adding 2 N H2SO4 and absorbance was measured at 450 nm and at 520 nm (infinite M1000, Tecan, Switzerland); the latter was subtracted as reference value. To normalize values from concentration series, controls (only 1× PBS/10 mM MgCl2) were subtracted, too. Data was analyzed by fitting to the equation: (1) A=Amin+(Amax−Amin)/1+(x/EC50)^−b where A is the observed absorbance, Amin and Amax are minimal and maximal absorbance respectively, and b is the Hill coefficient.

EC50 [1]: 154000 ± 115000 nM
Molecule: CC(C)C[C@H](NC(=O)[C@H](Cc1c[nH]c2ccccc12)NC(=O)[C@@H](N)CO)C(=O)N[C@@H](C)C(=O)N[C@@H](Cc1ccc(O)cc1)C(=O)N1CCC[C@H]1C(=O)NCC(=O)N[C@@H](C)C(=O)N[C@H](C(=O)N[C@@H](CO)C(=O)N[C@@H](Cc1ccc(O)cc1)C(=O)N[C@@H](CCCNC(=N)N)C(=O)NCC(=O)NCC(=O)N[C@@H](CCCCN=[N+]=[N-])C(=O)O)C(C)C [SWL, reference compound]

EC50 for EphA2 receptor phosphorylation (ephrin-A1 dose-response (Figure A7), PC-3 cells, 30 min at 37 °C, substrate reaction 8 min): 0.0552 ± 0.0103 µg/mL | EC50 (ephrin-A1 dose-response (Figure A7), PC-3 cells, conversion of the µg/mL value): 2.65 nM | EC50 [1]: 2.7 ± 0.5 nM
B1: ephrin-A1: natural EphA2 protein ligand, molecular weight approx. 21 kDa (protein)
chain: DRHTVFWNSSNPKFRNEDYTIHVQLNDYVDIICPHYEDHSVADAAMEQYILYLVEHEEYQLCQPQSKDQVRWQCNRPSAKHGPEKLSEKFQRFTPFTLGKEFKEGHSYYYISKPIHQHEDRCLRLKVTVSGKITHSPQAHDNPQEKRLAADDPEVRVLHSIGHS
modifications: Limits are the mature chain without signal peptide and GPI propeptide, by convention; the approx. 21 kDa MW fits a non-Fc soluble form; Possible N-glycan at Asn
